The target of this experiment is human IgG1 scaffold. The experiment is described as follows: SPR.

In general, Kd refers to a measure of binding affinity in units of concentration. Read a high Kd as weaker binding.

B1: A1 (designed binder)
chain: MKGETTTEAVDAATAEKVFKQYANDNGVDGEWTYDDATKTFTVTEKPEVIDASELTPAVTTYKLVINGRTLSGYTTTTAVDAATAEKVFKQYAYVHEVDGEWTYDDATKTFTVTEKPEVIDASELTPAVTTYKLVINGRTLSGETTTKAVDAETAEKAFKQYANDNGVDGVWTYDDATKTFTVTE
The molecule B1 gave a Kd of 24 nM.

B2: WT (other)
chain: LTPAVTTYKLVINGKTLKGETTTKAVDAATAEKVFKQYANDNGVDGEWTYDDATKTFTVTEKPEVI
Molecule B2 registered a Kd of 3000 nM.
